Assays:
HLA-B*15:01 [1] = assay: IEDB peptide-MHC binding, purified MHC/competitive/radioactivity; filed as Kd, often an IC50 or EC50 that approximates it; ≥ and ≤ were set here for values at or beyond the usual limits of such assays
HLA-B*07:02 = assay: as above
HLA-B*15:01 [2] = assay: IEDB peptide-MHC binding, purified MHC/direct/fluorescence; filed as Kd, often an IC50 or EC50 that approximates it; ≥ and ≤ were set here for values at or beyond the usual limits of such assays; conditions: source organism: Mammarenavirus lassaense
HLA-B*46:01 = assay: as above; conditions: source organism: Mammarenavirus lassaense
HLA-A*30:01 = assay: IEDB peptide-MHC binding, purified MHC/competitive/radioactivity; filed as Kd, often an IC50 or EC50 that approximates it; ≥ and ≤ were set here for values at or beyond the usual limits of such assays
HLA-A*24:02 = assay: as above
HLA-A*23:01 = assay: as above
HLA-A*29:02 = assay: as above
HLA-A*26:01 = assay: as above
HLA-A*30:02 = assay: as above
HLA-A*32:01 = assay: as above
HLA-A*01:01 = assay: as above
HLA-B*18:01 = assay: IEDB peptide-MHC binding, purified MHC/direct/fluorescence; filed as Kd, often an IC50 or EC50 that approximates it; ≥ and ≤ were set here for values at or beyond the usual limits of such assays; conditions: source organism: Francisella tularensis subsp. holarctica LVS
HLA-B*40:01 [3] = assay: as above; conditions: source organism: Francisella tularensis subsp. holarctica LVS
HLA-B*35:01 = assay: IEDB peptide-MHC binding, purified MHC/competitive/radioactivity; filed as Kd, often an IC50 or EC50 that approximates it; ≥ and ≤ were set here for values at or beyond the usual limits of such assays
HLA-B*53:01 = assay: as above
HLA-B*51:01 [4] = assay: as above
HLA-B*40:01 [5] = assay: as above
HLA-B*44:02 = assay: as above
HLA-B*51:01 [6] = assay: IEDB peptide-MHC binding, purified MHC/competitive/fluorescence; filed as Kd, often an IC50 or EC50 that approximates it; ≥ and ≤ were set here for values at or beyond the usual limits of such assays; conditions: source organism: Escherichia coli K-12
HLA-A*24:03 = assay: IEDB peptide-MHC binding, purified MHC/direct/fluorescence; filed as Kd, often an IC50 or EC50 that approximates it; ≥ and ≤ were set here for values at or beyond the usual limits of such assays; conditions: source organism: Vibrio vulnificus
HLA-B*44:03 = assay: IEDB peptide-MHC binding, purified MHC/competitive/radioactivity; filed as Kd, often an IC50 or EC50 that approximates it; ≥ and ≤ were set here for values at or beyond the usual limits of such assays; conditions: source organism: Dengue virus 1 Brazil/97-11/1997
[7] = source organism: Vaccinia virus Copenhagen
[8] = source organism: Dengue virus 4 Philippines/H241/1956
[9] = source organism: Vaccinia virus WR
[10] = source organism: Dengue virus 1 Brazil/97-11/1997
[11] = source organism: Dengue virus 1 Singapore/S275/1990
[12] = source organism: Mammarenavirus machupoense
[13] = source organism: Dengue virus 3 Martinique/1243/1999
[14] = source organism: Lassa virus Josiah
[15] = source organism: Lymphocytic choriomeningitis virus (strain Armstrong)
[16] = source organism: Dengue virus 2 Jamaica/1409/1983
[17] = source organism: Dengue virus 3 Sri Lanka/1266/2000

Sequence: ISKTSIACF
- Kd (HLA-B*15:01 [1]; [7]): 10800 nM

Sequence: SPGYVLGIFL
- Kd (HLA-B*07:02; [8]): 116 nM

Sequence: IMGIPYCNY
- Kd (HLA-B*15:01 [2]): 43 nM
- Kd (HLA-B*46:01): ≥ 20000 nM

Sequence: MTRDPLYIY
- Kd (HLA-A*30:01; [9]): 16.9 nM

Sequence: FQYSDRRWCF
- Kd (HLA-B*15:01 [1]; [10]): 3.88 nM
- Kd (HLA-A*24:02; [10]): 2480 nM
- Kd (HLA-A*23:01; [10]): 272 nM

Sequence: GVYPLSIPAT
- Kd (HLA-A*30:01; [11]): 1900 nM

Sequence: YKELCDAVY
- Kd (HLA-A*29:02; [12]): 3200 nM
- Kd (HLA-A*26:01; [12]): ≥ 77900 nM
- Kd (HLA-A*24:02; [12]): ≥ 77500 nM
- Kd (HLA-A*30:02; [12]): 1420 nM
- Kd (HLA-A*32:01; [12]): ≥ 77800 nM
- Kd (HLA-A*01:01; [12]): 4060 nM
- Kd (HLA-A*30:01; [12]): ≥ 54300 nM
- Kd (HLA-A*23:01; [12]): ≥ 40500 nM

Sequence: VEIGLGMPF
- Kd (HLA-B*18:01): ≤ 1 nM
- Kd (HLA-B*40:01 [3]): 16.8 nM

Sequence: APTRVVAAEM
- Kd (HLA-B*35:01; [13]): 20.3 nM

Sequence: RIKQQGIFG
- Kd (HLA-A*30:01; [13]): 19.9 nM

Sequence: EPIPMATYGW
- Kd (HLA-A*26:01; [10]): ≥ 69700 nM
- Kd (HLA-B*53:01; [10]): 13.2 nM

Sequence: RQRTPQDNQL
- Kd (HLA-B*15:01 [1]; [10]): 112 nM

Sequence: TPRSPSVEV
- Kd (HLA-B*07:02; [8]): 2.58 nM
- Kd (HLA-B*51:01 [4]; [8]): 538 nM

Sequence: CPLLVNTEPE
- Kd (HLA-B*53:01; [8]): 1650 nM

Sequence: KAYLYTEYF
- Kd (HLA-B*15:01 [1]; [9]): 7.64 nM

Sequence: REIPERSWNT
- Kd (HLA-B*40:01 [5]; [8]): 1480 nM

Sequence: IIKSSYVFK
- Kd (HLA-A*30:01; [9]): 10.9 nM

Sequence: CWLVSNGSY
- Kd (HLA-A*29:02; [14]): 543 nM
- Kd (HLA-A*26:01; [14]): ≥ 34400 nM
- Kd (HLA-A*30:02; [14]): 6.3 nM
- Kd (HLA-A*32:01; [14]): 18800 nM
- Kd (HLA-A*01:01; [14]): 13900 nM
- Kd (HLA-A*30:01; [14]): 16900 nM

Sequence: ITNELNYVLW
- Kd (HLA-B*53:01; [8]): 483 nM

Sequence: KIRCEITSF
- Kd (HLA-B*15:01 [1]; [9]): 4.28 nM

Sequence: KLSHSDYEY
- Kd (HLA-A*29:02; [15]): 1260 nM
- Kd (HLA-A*26:01; [15]): ≥ 77900 nM
- Kd (HLA-A*30:02; [15]): 22.5 nM
- Kd (HLA-A*32:01; [15]): 6390 nM
- Kd (HLA-A*01:01; [15]): 2580 nM
- Kd (HLA-A*30:01; [15]): ≥ 24200 nM

Sequence: MEKASFIEV
- Kd (HLA-B*44:02; [16]): 320 nM
- Kd (HLA-B*40:01 [5]; [16]): 1210 nM

Sequence: FSHDHIGHG
- Kd (HLA-B*15:01 [1]; [9]): 31.9 nM

Sequence: SPKRLATAIA
- Kd (HLA-B*07:02; [13]): 34.1 nM

Sequence: EPKEGTKKLM
- Kd (HLA-B*35:01; [16]): ≥ 54400 nM

Sequence: YPYSDDLTI
- Kd (HLA-B*51:01 [6]): 281 nM

Sequence: WENNIKLTVV
- Kd (HLA-B*40:01 [5]; [13]): 443 nM

Sequence: KLRPKWLDA
- Kd (HLA-A*30:01; [8]): 32.7 nM

Sequence: LETLMLVAL
- Kd (HLA-B*44:02; [8]): 1100 nM
- Kd (HLA-B*40:01 [5]; [8]): 3.49 nM

Sequence: KEYCVECYM
- Kd (HLA-B*15:01 [1]; [9]): 4620 nM

Sequence: YFHAELNYL
- Kd (HLA-A*24:03): 3.7 nM

Sequence: RIIPKNNHA
- Kd (HLA-B*15:01 [1]; [9]): 444 nM

Sequence: DIMGIPYCNY
- Kd (HLA-A*29:02; [14]): 105 nM
- Kd (HLA-A*26:01; [14]): 541 nM
- Kd (HLA-A*30:02; [14]): 444 nM
- Kd (HLA-A*32:01; [14]): ≥ 69900 nM
- Kd (HLA-A*01:01; [14]): ≥ 28900 nM
- Kd (HLA-A*30:01; [14]): ≥ 70400 nM

Sequence: RLKGESRKTF
- Kd (HLA-B*15:01 [1]; [13]): 300 nM

Sequence: RMAILGDTAW
- Kd (HLA-B*15:01 [1]; [16]): 233 nM
- Kd (HLA-B*53:01; [16]): 21.4 nM
- Kd (HLA-B*44:02; [16]): 451 nM

Sequence: IQKETLVTF
- Kd (HLA-B*15:01 [1]; [16]): 1.61 nM
- Kd (HLA-A*24:02; [16]): 1560 nM
- Kd (HLA-A*23:01; [16]): 40.5 nM

Sequence: IPKIYGGPI
- Kd (HLA-B*07:02; [11]): 14.2 nM
- Kd (HLA-B*51:01 [4]; [11]): 630 nM

Sequence: AETQHGTVL
- Kd (HLA-B*44:03): 52.7 nM
- Kd (HLA-B*40:01 [5]; [10]): 0.32 nM

Sequence: MILPAALAF
- Kd (HLA-B*15:01 [1]; [17]): 6.87 nM
- Kd (HLA-B*35:01; [17]): 394 nM
- Kd (HLA-A*32:01; [17]): 29.5 nM

Sequence: MERFNCSSF
- Kd (HLA-B*15:01 [1]; [7]): 1.62 nM

Sequence: KLITQFETY
- Kd (HLA-B*15:01 [1]; [13]): 20.2 nM
- Kd (HLA-A*30:02; [13]): 7780 nM
- Kd (HLA-A*32:01; [13]): 202 nM

From the Immune Epitope Database (IEDB)
